First the molecules themselves.
B1: Adapter molecule crk (Homo sapiens), P46108-1 (parent)
chain: MAGNFDSEERSSWYWGRLSRQEAVALLQGQRHGVFLVRDSSTSPGDYVLSVSENSRVSHYIINSSGPRPPVPPSPAQPPPGVSPSRLRIGDQEFDSLPALLEFYKIHYLDTTTLIEPVSRSRQGSGVILRQEEAEYVRALFDFNGNDEEDLPFKKGDILRIRDKPEEQWWNAEDSEGKRGMIPVPYVEKYRPASASVSALIGGNQEGSHPQPLGGPEPGPYAQPSVNTPLPNLQNGPIYARVIQKRVPNAYDKTALALEVGELVKVTKINVSGQWEGECNGKRGHFPFTHVRLLDQQNPDEDFS

Variants of B1 are the subject of one experiment. To be noted: with ppia_human PPIA.
As for P218F, the “effect of a mutation on the interaction” value is on record as “increasing interaction strength”.

In a further experiment the parent is B1. Particulars: with ppia_human PPIA. The source holds these as a separate data set.
With P220A, the “effect of a mutation on the interaction” value is listed as “disrupting interaction strength”.

The values are drawn from IntAct's records for PubMed 26656091.
